Data published in patent US20170368132A1 (published 2017).
Non-standard residues stand in square brackets, D forms with d. Groups on a side chain read outwards from the residue. *: point of attachment. 5FAM = O=C1OC2(c3ccc(O)cc3Oc3cc(O)ccc32)c2ccc(C(=O)*)cc21

B2: Rad51 (S208E; A209D) (enzyme)
chain: MAMQMQLEANADTSVEEESFGPQPISRLEQCGINANDVKKLEEAGFHTVEAVAYAPKKELINIKGISEAKADKILAEAAKLVPMGFTTATEFHQRRSEIIQITTGSKELDKLLQGGIETGSITEMFGEFRTGKTQICHTLAVTCQLPIDRGGGEGKAMYIDTEGTFRPERLLAVAERYGLSGSDVLDNVAYARAFNTDHQTQLLYQAEDMMVESRYALLIVDSATALYRTDYSGRGELSARQMHLARFLRMLLRLADEFGVAVVITNQVVAQVDGAAMFAADPKKPIGGNIIAHASTTRLYLRKGRGETRICKIYDSPCLPEAEAMFAINADGVGDAKD
notes: Human RAD51 mutant tested by Y2H; also called human RAD51 S208E A209D
B3: Rad51 (S208L; A209E; M210A) (enzyme)
chain: MAMQMQLEANADTSVEEESFGPQPISRLEQCGINANDVKKLEEAGFHTVEAVAYAPKKELINIKGISEAKADKILAEAAKLVPMGFTTATEFHQRRSEIIQITTGSKELDKLLQGGIETGSITEMFGEFRTGKTQICHTLAVTCQLPIDRGGGEGKAMYIDTEGTFRPERLLAVAERYGLSGSDVLDNVAYARAFNTDHQTQLLYQALEAMVESRYALLIVDSATALYRTDYSGRGELSARQMHLARFLRMLLRLADEFGVAVVITNQVVAQVDGAAMFAADPKKPIGGNIIAHASTTRLYLRKGRGETRICKIYDSPCLPEAEAMFAINADGVGDAKD
notes: Human RAD51 mutant tested by Y2H; also called human RAD51 S208L A209E M210A
B4: Rad51 (F86E; A89E) (enzyme)
chain: MAMQMQLEANADTSVEEESFGPQPISRLEQCGINANDVKKLEEAGFHTVEAVAYAPKKELINIKGISEAKADKILAEAAKLVPMGETTETEFHQRRSEIIQITTGSKELDKLLQGGIETGSITEMFGEFRTGKTQICHTLAVTCQLPIDRGGGEGKAMYIDTEGTFRPERLLAVAERYGLSGSDVLDNVAYARAFNTDHQTQLLYQASAMMVESRYALLIVDSATALYRTDYSGRGELSARQMHLARFLRMLLRLADEFGVAVVITNQVVAQVDGAAMFAADPKKPIGGNIIAHASTTRLYLRKGRGETRICKIYDSPCLPEAEAMFAINADGVGDAKD
notes: Human RAD51 mutant tested by Y2H; also called human RAD51 F86E A89E
B5: Rad51 (Q202R, Y205D, Q206A) (enzyme)
chain: MAMQMQLEANADTSVEEESFGPQPISRLEQCGINANDVKKLEEAGFHTVEAVAYAPKKELINIKGISEAKADKILAEAAKLVPMGFTTATEFHQRRSEIIQITTGSKELDKLLQGGIETGSITEMFGEFRTGKTQICHTLAVTCQLPIDRGGGEGKAMYIDTEGTFRPERLLAVAERYGLSGSDVLDNVAYARAFNTDHQTRLLDAASAMMVESRYALLIVDSATALYRTDYSGRGELSARQMHLARFLRMLLRLADEFGVAVVITNQVVAQVDGAAMFAADPKKPIGGNIIAHASTTRLYLRKGRGETRICKIYDSPCLPEAEAMFAINADGVGDAKD
notes: Human RAD51 mutant tested by Y2H; also called human RAD51 Q202R Y205D Q206A
B6: Rad51 (A190L; A192L) (enzyme)
chain: MAMQMQLEANADTSVEEESFGPQPISRLEQCGINANDVKKLEEAGFHTVEAVAYAPKKELINIKGISEAKADKILAEAAKLVPMGFTTATEFHQRRSEIIQITTGSKELDKLLQGGIETGSITEMFGEFRTGKTQICHTLAVTCQLPIDRGGGEGKAMYIDTEGTFRPERLLAVAERYGLSGSDVLDNVLYLRAFNTDHQTQLLYQASAMMVESRYALLIVDSATALYRTDYSGRGELSARQMHLARFLRMLLRLADEFGVAVVITNQVVAQVDGAAMFAADPKKPIGGNIIAHASTTRLYLRKGRGETRICKIYDSPCLPEAEAMFAINADGVGDAKD
notes: Human RAD51 mutant tested by Y2H; also called human RAD51 A190L A192L

Tests used:
[1] = biological target: T1, Rad51, fluorescently labelled (microscale thermophoresis) (UniProt Q06609 1-339, limits assumed, fluorescently labelled according to the manufacturer's protocol (site not stated)); experiment: microscale thermophoresis, 1 mM Ca2+ against no Ca2+
T1 construct: Purified labelled protein at about 500 nM; The buffer contained 0.5 mM ATP and 2.5 uM ssDNA
T1 sequence (looked up): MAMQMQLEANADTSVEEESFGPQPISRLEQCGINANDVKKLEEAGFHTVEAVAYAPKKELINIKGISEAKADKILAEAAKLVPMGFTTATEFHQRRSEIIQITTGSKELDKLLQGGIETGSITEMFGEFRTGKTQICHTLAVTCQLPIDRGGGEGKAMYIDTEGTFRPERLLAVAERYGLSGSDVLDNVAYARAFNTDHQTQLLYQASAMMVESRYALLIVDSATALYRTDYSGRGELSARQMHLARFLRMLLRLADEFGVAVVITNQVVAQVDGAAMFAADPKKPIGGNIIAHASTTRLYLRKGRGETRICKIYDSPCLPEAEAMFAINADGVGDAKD
Protocol: (§1) Microscale thermophoresis was performed as previously described (see, for e.g. Jerabek-Willemsen, M., Wienken, C. J., Braun, D., Baaske, P. & Duhr, S. Molecular interaction studies using microscale thermophoresis. Assay Drug Dev. Technol. 9, 342-353 (2011)). The affinity of the Compound was measured using the Monolith NT.115 from Nanotemper Technologies. Rad51 was fluorescently labelled according to the manufacturer's protocol and the labelled protein used for each assay was about 500 nM. A solution of unlabelled peptide was diluted for appropriate serial concentration gradient. The samples were loaded into silica capillaries (Polymicro Technologies). Measurements were performed at room temperature in buffer containing PBS, 0.1% Tween 20, 0.5 mM ATP, 2.5 uM ssDNA, with 1 mM CaCl2 (when mentioned). Measurements were done using 12% LED power and 60% MST power. The assays were repeated three times for each affinity measurement. Data analyses were performed using Nanotemper Analysis software and OriginPro 8.0 software provided by the manufacturer.

[2] = biological target: T1, Rad51, fluorescently labelled …; experiment: microscale thermophoresis, labelled Rad51 about 500 nM, PBS
Protocol: as §1

[3] = biological target: T1, Rad51, fluorescently labelled …; experiment: microscale thermophoresis, labelled Rad51 about 500 nM, PBS + 1 mM Ca2+
Protocol: as §1

[4] = biological target: T2, H. sapiens Rad51 (H. sapiens, UniProt Q06609 1-339); experiment: yeast two-hybrid, human RAD51 mutant
T2 construct: Expressed in yeast as a two-hybrid fusion; also called human RAD51
T2 sequence: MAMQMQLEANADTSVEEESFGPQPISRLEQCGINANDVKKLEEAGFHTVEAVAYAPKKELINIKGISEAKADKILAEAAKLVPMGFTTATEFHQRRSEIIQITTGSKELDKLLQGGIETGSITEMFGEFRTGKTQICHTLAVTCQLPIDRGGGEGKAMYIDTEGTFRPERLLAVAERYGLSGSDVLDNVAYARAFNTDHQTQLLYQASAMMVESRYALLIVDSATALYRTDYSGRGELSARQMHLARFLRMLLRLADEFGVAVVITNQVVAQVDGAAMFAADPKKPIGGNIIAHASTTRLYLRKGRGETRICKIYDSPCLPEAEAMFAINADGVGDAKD
Protocol: (§2) The ability of peptides to bind human RAD51 with various mutations was then tested by Y2H assay. […] While mutations affecting BRCA2 binding had no effect on peptide binding, mutations that affected RAD51-AP1 binding did disrupt peptide binding. As these mutations were at residues 202, 205, and 206, they were consistent with the previous fusion data showing binding somewhere in the 190-218 region, and indicated the peptide SEQ ID NO.:5 contacts at least residues 202, 205, and 206 of RAD51.

[5] = biological target: B4; experiment: yeast two-hybrid, human RAD51 mutant
Protocol: as §2

[6] = biological target: B6; experiment: yeast two-hybrid, human RAD51 mutant
Protocol: as §2

[7] = biological target: B3; experiment: yeast two-hybrid, human RAD51 mutant
Protocol: as §2

[8] = biological target: B2; experiment: yeast two-hybrid, human RAD51 mutant
Protocol: as §2

[9] = biological target: B5; experiment: yeast two-hybrid, human RAD51 mutant
Protocol: as §2

B1: Compound 5, Ac-K(C6_5FAM)-RRRRRRRKRLGVRLRVSRML-NH2 (peptide)
peptide: Ac-K([C6-5FAM])RRRRRRRKRLGVRLRVSRML-NH2
notes: also called active peptide 5
**Q.** B1 was tested. Which “fold increase of Kd (calcium raised from 0 to 1 mM)” value [1] did it give?
**A.** 3.4 fold

**Q.** And the Kd [2]?
**A.** 8.37 nM

**Q.** And the Kd [3]?
**A.** 28.9 nM

**Q.** Does B2 bind [4]?
**A.** binds

**Q.** Does B3 bind [4]?
**A.** no binding

**Q.** Does B4 bind [4]?
**A.** no binding

**Q.** Does B5 bind [4]?
**A.** binds

**Q.** Does B6 bind [4]?
**A.** no binding

B7: Compound 10, Ac-lmrsvrlrvGlrkrrrrrrr-NH2 (peptide)
peptide: Ac-[dL][dM][dR][dS][dV][dR][dL][dR][dV]G[dL][dR][dK][dR][dR][dR][dR][dR][dR][dR]-NH2
**Q.** Which Kd [2] does the source give for B7 here?
**A.** 8.55 nM

B8: residues 1517-1551 of human BRCA2 used as Y2H bait (peptide)
peptide: KEPTLLGFHTASGKKVKIAKESLDKVKNLFDEKEQ
notes: Y2H fusion in yeast
**Q.** Does B8 bind [5]?
**A.** binds

**Q.** Does B8 bind [6]?
**A.** no binding

**Q.** Does B8 bind [7]?
**A.** no binding

**Q.** Does B8 bind [8]?
**A.** no binding

**Q.** Does B8 bind [9]?
**A.** binds
